The source of these data is paper PMC12561415, “ACSS2/AATF Drives Soluble FasL‐Mediated CD8^+ T Cell Apoptosis in Pancreatic Neuroendocrine Tumors” (Advanced Science, 2025).

The assay has as its target T1, Recombinant human ACSS2 (human, UniProt Q9NR19 1-701).
T1 construct: Recombinant human ACSS2, immobilised on a CM5 chip for SPR
The assay can be described thus: SPR; Biacore 8K, 25 °C, HBS-EP running buffer; ACSS2 amine-coupled to a CM5 chip (5 µg/mL in 10 mM sodium acetate pH 5.5); AATF injected at 12.5-400 nM; multi-cycle, 120 s association, 120 s dissociation, 30 µL/min. The following applies: both partners purified.

T1 sequence (Q9NR19 whole entry): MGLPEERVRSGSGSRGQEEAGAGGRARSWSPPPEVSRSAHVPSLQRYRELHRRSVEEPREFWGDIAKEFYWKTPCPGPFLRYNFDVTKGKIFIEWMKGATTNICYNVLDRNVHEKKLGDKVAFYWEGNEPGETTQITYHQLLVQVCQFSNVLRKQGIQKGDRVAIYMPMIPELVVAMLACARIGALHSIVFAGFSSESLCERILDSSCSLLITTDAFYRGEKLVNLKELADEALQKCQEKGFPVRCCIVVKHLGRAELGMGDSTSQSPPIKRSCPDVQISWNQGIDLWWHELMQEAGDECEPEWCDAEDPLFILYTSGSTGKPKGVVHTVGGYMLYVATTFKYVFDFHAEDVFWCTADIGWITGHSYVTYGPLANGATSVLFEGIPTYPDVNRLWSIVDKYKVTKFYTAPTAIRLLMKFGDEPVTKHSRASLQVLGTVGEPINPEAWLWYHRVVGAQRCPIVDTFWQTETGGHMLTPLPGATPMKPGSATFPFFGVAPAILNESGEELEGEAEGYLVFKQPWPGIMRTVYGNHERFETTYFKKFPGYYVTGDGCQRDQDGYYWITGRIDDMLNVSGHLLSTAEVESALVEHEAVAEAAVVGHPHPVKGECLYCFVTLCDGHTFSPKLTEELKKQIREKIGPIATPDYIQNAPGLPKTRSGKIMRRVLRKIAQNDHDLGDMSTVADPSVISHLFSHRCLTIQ

B1: Recombinant human AATF (natural protein, UniProt Q9NY61 1-560, looked up)
chain: MAGPQPLALQLEQLLNPRPSEADPEADPEEATAARVIDRFDEGEDGEGDFLVVGSIRKLASASLLDTDKRYCGKTTSRKAWNEDHWEQTLPGSSDEEISDEEGSGDEDSEGLGLEEYDEDDLGAAEEQECGDHRESKKSRSHSAKTPGFSVQSISDFEKFTKGMDDLGSSEEEEDEESGMEEGDDAEDSQGESEEDRAGDRNSEDDGVVMTFSSVKVSEEVEKGRAVKNQIALWDQLLEGRIKLQKALLTTNQLPQPDVFPLFKDKGGPEFSSALKNSHKALKALLRSLVGLQEELLFQYPDTRYLVDGTKPNAGSEEISSEDDELVEEKKQQRRRVPAKRKLEMEDYPSFMAKRFADFTVYRNRTLQKWHDKTKLASGKLGKGFGAFERSILTQIDHILMDKERLLRRTQTKRSVYRVLGKPEPAAQPVPESLPGEPEILPQAPANAHLKDLDEEIFDDDDFYHQLLRELIERKTSSLDPNDQVAMGRQWLAIQKLRSKIHKKVDRKASKGRKLRFHVLSKLLSFMAPIDHTTMNDDARTELYRSLFGQLHPPDEGHGD
notes: Recombinant human AATF, the analyte in SPR; also called Che-1
As to B1, the dissociation constant Kd (as a rule, the free concentration of one partner at which half of the binding sites on the other are occupied at equilibrium, for simple one-to-one binding) stood at 33.3 ± 1.7 nM.
